Patent US9011845B2, “Methods for treatment of inflammatory and infectious viral diseases” (priority 2012, dated 2015)

How the values were obtained:
HSV-1 [1] = assay: In vivo rabbit eye model of HSV infection; details: for dendritic or geographic ulceration and clinical appearance: vs controls (PBS or peg-BSA)
Excerpt: FIG. 10 is line graph showing viral production in a rabbit eye model for eyes infected with HSV-1 and treated with controls (peg-BSA and PBS), 1% triflourothymidine, or peg-Arginase I, according to an example embodiment of the present invention.
FIG. 11 is a series of images of rabbit eyes infected with HSV-1 and treated with controls (peg-BSA or PBS), 1% triflourothymidine, or peg-Arginase I, according to an example embodiment of the present invention.
In an in vivo rabbit eye model system, the ability of peg-Arginase I to prevent HSV-mediated inflammation-associated disease was assessed relative to a commonly prescribed ophthalmic antiviral-1% triflourothymidine (TFT). Rabbit eyes were infected with HSV, and infection and disease were allowed to establish prior to beginning treatment. […] FIG. 11 depicts representative overall clinical presentation of ocular herpetic disease. In either of the control (PBS or peg-BSA) treatment groups, severe blinding disease was observed following infection, with presence of severe inflammatory discharge and blinding epithelial defects observed by slit lamp examination.

[2] = system: acyclovir resistant mutant HSV; assay: Cell cultures infected with acyclovir resistant mutant HSV: infectious HSV yield; assay type: cell-based; details: two different drug resistant mutant HSV viruses
Excerpt: FIG. 8A is a bar graph showing infectious HSV yield for cell cultures infected with an acyclovir resistant mutant HSV, according to an example embodiment of the present invention.
FIG. 8B is a bar graph showing infectious HSV yield for cell cultures infected with a different acyclovir resistant mutant HSV, according to an example embodiment of the present invention.
(§1) In another exemplary embodiment, the present disclosure may be employed to treat pathogenic infections of the eye (e.g., herpes simplex virus types 1 and 2 (HSV-1 and HSV-2) and Adenovirus infections). Embodiments may be used as a treatment against wild-type and/or drug resistant herpes simplex virus (HSV) replication and/or transmission, as well as HSV-mediated inflammation-associated ocular disease.

Adenovirus Type 5 = Adenovirus Type 5 pink-eye clinical disease rabbit eye model; assay type: in vivo; details: treatment initiated eight hours after infection; four times daily
Method: FIG. 19 is a series of images of rabbit eyes with an Adenoviral infection and treated with control (peg-BSA), cidofovir, or peg-Arginase I drops, according to an example embodiment of the present invention.
In an in vivo rabbit eye model system, the ability of peg-Arginase I to prevent inflammation-associated disease following Adenoviral infection was examined. Rabbit eyes were infected with Adenovirus and eight hours later treatment was initiated. Eyes were treated four times daily with 10 U peg-Arginase I per 50 μl dose. […] FIGS. 20 through 24 illustrate that peg-Arginase I suppresses clinical presentation of disease at all treatment days, including suppression of ocular inflammation and neovascularization. […] These properties of peg-Arginase I illustrate the present invention's utility in preventing numerous vision-threatening ocular diseases that present clinically as inflammation or neovascularization of the eye.

[3] = system: VEGF-mediated migration of primary vascular endothelial cells; assay: Endothelial cell migration in a scratch wound healing model; assay type: cell-based; details: twenty-four hour period
Excerpt: FIG. 25A is a series of images comparing effects of treatment with either control (peg-BSA) or peg-Arginase I on endothelial cell migration in a scratch wound healing model, according to an example embodiment of the present invention.
FIG. 25B is a bar graph showing a percentage of unhealed wound area after a twenty-four hour period for the wounds shown in FIG. 25A.
In another exemplary embodiment, the present disclosure may be employed to prevent and resolve corneal neovascularization and vascularization-associated edema. […] A key mediator and initiator of corneal vascularization may be vascular endothelial growth factor (VEGF).

HSV-1 [4] = assay: Replication of HSV-1 in primary corneal epithelial cell cultures; assay type: cell-based; details: primary human corneal epithelial cells
Excerpt: FIG. 9 is a bar graph showing replication of HSV-1 in primary corneal epithelial cell cultures treated with vehicle or peg-Arginase I, according to an example embodiment of the present invention.
as §1

[5] = system: surgically-induced corneal lesions; assay: Surgically debrided cornea (corneal wound healing) rabbit eye model; assay type: in vivo
Excerpt: FIG. 1A is a series of images of rabbit eyes with an 8 mm ([…]) region of cornea surgically debrided and treated with peg vehicle or peg-Arginase I, according to an example embodiment of the present invention.
In an exemplary embodiment, the present disclosure may be employed to treat ocular lesions, which may be caused by accidental or surgical trauma. Application of peg-Arginase I to a corneal lesion accelerates wound healing while reducing or eliminating ocular inflammation, neovascularization and inflammatory discharge.

[6] = system: VEGF-mediated corneal vascularization; assay: VEGF pellet corneal micropocket rabbit eye model; assay type: in vivo; details: 10 U per 50 μl drop 4 times daily
Method: FIG. 26A is a pair of images of rabbit eyes having a VEGF pellet surgically implanted into a corneal micropocket and treated with vehicle or peg-Arginase I, according to an example embodiment of the present invention.
In an in vivo rabbit eye model system, the ability of peg-Arginase I to prevent VEGF-mediated corneal vascularization was assessed by implanting slow release VEGF pellets within a corneal micropocket 3 mm from the corneal limbus. Eyes were subsequently treated with either peg-Arginase I (right, OD eye) or peg-BSA vehicle control (left, OS eye) 4 times daily at a dose of 10 U per 50 μl drop. […] As shown, peg-Arginase I inhibits vision-threatening corneal vascularization, further enabling peg-Arginase I to prevent and ameliorate vision-threatening aspects of many ocular diseases. Moreover, inhibition of vascularization assists in suppressing deleterious inflammatory responses.

Adenovirus = assay: Cell cultures infected with Adenovirus: cytopathic effects; assay type: cell-based
Excerpt: FIG. 18 is a pair of images of cell cultures infected with Adenovirus and treated with control (peg-BSA) or peg-Arginase I drops, according to an example embodiment of the present invention.
In another exemplary embodiment, the present disclosure may be employed to treat other inflammation-associated ocular diseases, such as those induced by Adenovirus infection. Clinical presentation following Adenoviral infection of the eye may proceed even when antiviral compounds, such as cidofovir, are present. Clinical presentation of Adenovirus-associated ocular disease may be due to uncontrolled inflammatory responses to the infection even following viral clearance.

HSV-1 [7] = assay: HSV-1 infected cell cultures: infectious viral yield, cytopathic effects, cell-to-cell spread; assay type: cell-based
Excerpt: FIG. 5 is a bar graph showing infectious viral yield for cell cultures infected with HSV-1 and treated with a vehicle (peg vehicle), peg-Arginase I, or different concentrations of acyclovir, according to an example embodiment of the present invention.
FIG. 6 is a series of images showing virus-mediated cytopathic effects on cell cultures treated as described in FIG. 5.
FIG. 7A is a series of images of HSV-plaques showing capacity for cell-to-cell spread following treatment with a vehicle (peg vehicle), peg-Arginase I, or acyclovir, according to an example embodiment of the present invention.
as §1

Molecule: O=c1[nH]c(=O)n([C@H]2C[C@H](O)[C@@H](CO)O2)cc1C(F)(F)F [1% TFT, triflourothymidine, reference compound]
- dendritic or geographic ulceration and clinical appearance (HSV-1 [1]): marked reduction in the presence of dendritic or geographic ulceration, and improved clinical appearance

Molecule: Nc1nc2c(ncn2COCCO)c(=O)[nH]1 [acyclovir, reference compound]
- inhibition of drug-resistant viral replication [2]: not functional against such strains, even at high doses

Molecule: Nc1ccn(C[C@@H](CO)OCP(=O)(O)O)c(=O)n1 [cidofovir, reference compound]
- clinical symptoms / clinical disease presentation (Adenovirus Type 5): did not prevent clinical disease presentation

B1: peg-Arginase I: a formulation of arginase I that has been pegylated; applied as topical ophthalmic eye drop (protein, UniProt P05089 1-322, looked up)
Arginase-1: MSAKSRTIGIIGAPFSKGQPRGGVEEGPTVLRKAGLLEKLKEQECDVKDYGDLPFADIPNDSPFQIVKNPRSVGKASEQLAGKVAEVKKNGRISLVLGGDHSLAIGSISGHARVHPDLGVIWVDAHTDINTPLTTTSGNLHGQPVSFLLKELKGKIPDVPGFSWVTPCISAKDIVYIGLRDVDPGEHYILKTLGIKYFSMTEVDRLGIGKVMEETLSYLLGRKKRPIHLSFDVDGLDPSFTPATGTPVVGGLTYREGLYITEEIYKTGLLSGLDIMEVNPSLGKTPEEVTRTVNTAVAITLACFGLAREGNHKPIDYLNPPK
modifications: PEGylated
notes: a formulation of arginase I that has been pegylated; applied as topical ophthalmic eye drop
- VEGF-mediated migration of primary vascular endothelial cells [3]: prevents VEGF-mediated migration of primary vascular endothelial cells
- antiviral effects (HSV-1 [4]): antiviral effects of peg-Arginase I were also observed
- inhibition of drug-resistant viral replication [2]: highly efficient at inhibiting drug-resistant viral replication
- Calculated Times of Corneal Epithelium Closure ([5]; 25% closure): 14 h
- Calculated Times of Corneal Epithelium Closure ([5]; 50% closure): 30 h
- Calculated Times of Corneal Epithelium Closure ([5]; 75% closure): 38 h
- eyes clinically cured of all ocular parameters ([5]; by day six): all eyes clinically cured
- time for 100% of eyes to reach clinical cure for epithelial defects relative to peg-vehicle ([5]; compared with peg-vehicle): two days faster
- Number of Eyes Clinically Cured for Area of Corneal Debridement ([5]; day 0): 0/5
- Number of Eyes Clinically Cured of All Combined Ocular Clinical Conditions ([5]; day 0): 0/5
- Number of Eyes Clinically Cured of Corneal Neovascularization ([5]; day 0): 5/5 (100%)
- Number of Eyes Clinically Cured of Scleral Inflammation (Injection) ([5]; day 0): 5/5 (100%)
- Number of Eyes Clinically Cured for Area of Corneal Debridement ([5]; day 1): 0/5
- Number of Eyes Clinically Cured of All Combined Ocular Clinical Conditions ([5]; day 1): 0/5
- Number of Eyes Clinically Cured of Corneal Neovascularization ([5]; day 1): 5/5 (100%)
- Number of Eyes Clinically Cured of Scleral Inflammation (Injection) ([5]; day 1): 5/5 (100%)
- Number of Eyes Clinically Cured for Area of Corneal Debridement ([5]; day 2): 0/5
- Number of Eyes Clinically Cured of All Combined Ocular Clinical Conditions ([5]; day 2): 0/5
- Number of Eyes Clinically Cured of Corneal Neovascularization ([5]; day 2): 5/5 (100%)
- Number of Eyes Clinically Cured of Scleral Inflammation (Injection) ([5]; day 2): 5/5 (100%)
- Number of Eyes Clinically Cured for Area of Corneal Debridement ([5]; day 3): 3/5 (60%)
- Number of Eyes Clinically Cured of All Combined Ocular Clinical Conditions ([5]; day 3): 0/5
- Number of Eyes Clinically Cured of Corneal Neovascularization ([5]; day 3): 5/5 (100%)
- Number of Eyes Clinically Cured of Scleral Inflammation (Injection) ([5]; day 3): 5/5 (100%)
- Number of Eyes Clinically Cured for Area of Corneal Debridement ([5]; day 4): 5/5 (100%)
- Number of Eyes Clinically Cured of All Combined Ocular Clinical Conditions ([5]; day 4): 4/5 (80%)
- Number of Eyes Clinically Cured of Corneal Neovascularization ([5]; day 4): 5/5 (100%)
- Number of Eyes Clinically Cured of Scleral Inflammation (Injection) ([5]; day 4): 5/5 (100%)
- Number of Eyes Clinically Cured for Area of Corneal Debridement ([5]; day 6): 5/5 (100%)
- Number of Eyes Clinically Cured of All Combined Ocular Clinical Conditions ([5]; day 6): 5/5 (100%)
- Number of Eyes Clinically Cured of Corneal Neovascularization ([5]; day 6): 5/5 (100%)
- Number of Eyes Clinically Cured of Scleral Inflammation (Injection) ([5]; day 6): 5/5 (100%)
- eyes exhibiting no symptomology from the surgically-induced trauma ([5]; day four): 80%
- corneal edema resulting in corneal clouding and epithelial defects [6]: prevented the appearance of corneal edema
- extent and areas of neovascularization of the cornea ([6]; compared to peg-BSA treated controls): significantly reduced
- clinical symptoms / clinical disease presentation (Adenovirus Type 5): fewer clinical symptoms
- toxicity to cells (Adenovirus; Adenovirus infected cell cultures): no toxicity to cells
- Adenovirus-mediated cellular cytopathic effects (Adenovirus; vs peg-BSA control): prevents Adenovirus-mediated cellular cytopathic effects
- clinical presentation of disease (HSV-1 [1]; five days of treatment): statistically improved clinical presentation of disease
- infectious viral titers upon treatment (HSV-1 [1]; treatment begun after infection established (day three post infection titers matched)): barely detectable
- dendritic or geographic ulceration and clinical appearance (HSV-1 [1]): marked reduction in the presence of dendritic or geographic ulceration, and improved clinical appearance
- virus-associated cytopathic effects, viral transmission to uninfected cells, cell-to-cell spread (HSV-1 [7]; HSV-1 infected cell cultures): blocked virus-associated cytopathic effects, viral transmission to uninfected cells, and cell-to-cell spread
- inhibition of production of infectious virus (HSV-1 [7]; even at high multiplicities of infection (MOIs)): greater than 1000 fold
- effectiveness compared with acyclovir (HSV-1 [7]; infectious viral yield, HSV-1): at least as effective as high doses of a common anti-herpetic, acyclovir
